Assay results: article PMC7854593, “Molecular mechanism for vitamin C-derived C^5-glyceryl-methylcytosine DNA modification catalyzed by algal TET homologue CMD1” (Nature Communications, 2021)
Numbering of substitutions follows the chain as printed.

Legend:
[1] = biological target: T1, MBP-fused CMD1 (Chlamydomonas reinhardtii, UniProt A0A2K3D5Z7); assay: X-ray crystal structure, crystals soaked with sodium L-ascorbate; assay type: binding; settings: Fe2+ in active site; pH 5.0-5.6 citrate; 400 mM soak; binary complex 7CY5 (2.20 A) and ternary complex with 5mC-DNA 7CY8 (2.40 A); lactone form, monodentate via C2-hydroxyl
T1 construct: full-length CMD1 with N-terminal MBP via alpha-helical linker and C-terminal His6, tags kept; expressed in E. coli; residues 509-532 disordered in apo crystal, C-terminal region partly degraded in crystals

[2] = biological target: T2, CMD1 (UniProt A0A2K3D5Z7 1-532); assay: BLI; range over six structured DNAs; BLI: 20 mM Tris-HCl pH 8.0, 50 mM NaCl, 0.1% Tween-20, 0.5% BSA, 25 C; biotin-DNA on streptavidin sensors, 1:1 fit; settings: protein: recombinant, tags: His6-SUMO, cleaved with ULP1, label: 5'-biotin
[3] = biological target: T2, CMD1; assay: BLI; range over dsDNA5-6; BLI: 20 mM Tris-HCl pH 8.0, 50 mM NaCl, 0.1% Tween-20, 0.5% BSA, 25 C; biotin-DNA on streptavidin sensors, 1:1 fit; settings: protein: recombinant; tags: His6-SUMO, cleaved with ULP1; label: 5'-biotin
[4] = biological target: T2, CMD1; assay: BLI; range over dsDNA1-4; BLI: 20 mM Tris-HCl pH 8.0, 50 mM NaCl, 0.1% Tween-20, 0.5% BSA, 25 C; biotin-DNA on streptavidin sensors, 1:1 fit; settings: protein: recombinant; tags: His6-SUMO, cleaved with ULP1; label: 5'-biotin
[5] = biological target: T3, MBP-CMD1 (UniProt A0A2K3D5Z7 1-532); assay: BLI; BLI: 20 mM Tris-HCl pH 8.0, 50 mM NaCl, 0.1% Tween-20, 0.5% BSA, 25 C; biotin-DNA on streptavidin sensors, 1:1 fit; settings: protein: recombinant; tags: N-terminal MBP via alpha-helical linker; C-terminal His6; label: 5'-biotin; 10 bp palindromic duplex, 3' overhang 4 nt on both strands
[6] = biological target: T2, CMD1; assay: as above; settings: protein: recombinant, tags: His6-SUMO, cleaved with ULP1, label: 5'-biotin
[7] = biological target: T2, CMD1; assay: BLI; range over dsDNA7-9; BLI: 20 mM Tris-HCl pH 8.0, 50 mM NaCl, 0.1% Tween-20, 0.5% BSA, 25 C; biotin-DNA on streptavidin sensors, 1:1 fit; settings: protein: recombinant; tags: His6-SUMO, cleaved with ULP1; label: 5'-biotin
[8] = biological target: T3, MBP-CMD1; assay: crystal structure; Fe2+; BLI: 20 mM Tris-HCl pH 8.0, 50 mM NaCl, 0.1% Tween-20, 0.5% BSA, 25 C; biotin-DNA on streptavidin sensors, 1:1 fit; settings: protein: recombinant; tags: N-terminal MBP via alpha-helical linker; C-terminal His6; 10 bp palindromic duplex, 3' overhang 4 nt on both strands

T2 sequence (A0A2K3D5Z7 whole entry): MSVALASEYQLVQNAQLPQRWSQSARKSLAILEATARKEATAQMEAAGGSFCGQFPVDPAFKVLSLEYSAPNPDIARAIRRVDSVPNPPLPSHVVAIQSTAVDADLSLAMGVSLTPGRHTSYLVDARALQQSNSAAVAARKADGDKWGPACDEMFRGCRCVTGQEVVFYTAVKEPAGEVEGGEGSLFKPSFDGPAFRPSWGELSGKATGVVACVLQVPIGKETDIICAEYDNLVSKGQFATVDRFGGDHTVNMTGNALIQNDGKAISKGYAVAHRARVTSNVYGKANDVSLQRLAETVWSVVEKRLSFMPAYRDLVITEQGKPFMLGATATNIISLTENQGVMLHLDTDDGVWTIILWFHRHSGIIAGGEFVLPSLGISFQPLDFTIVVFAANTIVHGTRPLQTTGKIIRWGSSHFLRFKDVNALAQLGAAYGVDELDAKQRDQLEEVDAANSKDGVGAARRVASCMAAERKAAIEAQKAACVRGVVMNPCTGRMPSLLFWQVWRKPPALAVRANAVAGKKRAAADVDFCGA
T3 sequence (A0A2K3D5Z7 whole entry): as above
T1 sequence (A0A2K3D5Z7 whole entry, the tested form may be a part): as the sequence (A0A2K3D5Z7 whole entry) above

O=C1O[C@H]([C@@H](O)CO)C(O)=C1O [VC]
X-ray crystal structure, crystals soaked with sodium L-ascorbate [1]: crystals of CMD1 in complex with VC were obtained by soaking the apo CMD1 crystals

B1: Y-DNA (structured_DNA)
DNA 1: GCTTTAACTTACATAAATGCCAATATAGTATGCGTATTGC
DNA 2: TACCGCATACGCCTATATTGGCATTTATGTAAGTTAAAGC
Kd ([2]; fork): ~1380 nM

B2: dsDNA5 (40 bp, 5mC) (dsDNA)
DNA 1: B1 DNA 1
DNA 2: GCAATACGCATACTATATTGGCATTTATGTAAGTTAAAGC
modifications: one or two 5mC
Kd [3]: ~2400 nM

B3: dsDNA1 (40 bp, AT-rich) (dsDNA)
DNA 1: B1 DNA 1
DNA 2: B2 DNA 2
Kd [4]: ~2220 nM

B4: 5'-flap DNA (structured_DNA)
DNA 1: B1 DNA 1
DNA 2: B1 DNA 2
DNA 3: GCAATACGCATA
Kd ([2]; 5' flap): ~1380 nM

B5: 3'-flap DNA (structured_DNA)
DNA 1: B1 DNA 1
DNA 2: B1 DNA 2
DNA 3: GCGTATGCGGTA
Kd ([2]; 3' flap): ~1380 nM

B6: dsDNA6 (40 bp, 5mC) (dsDNA)
DNA 1: B1 DNA 1
DNA 2: B2 DNA 2
modifications: one or two 5mC
Kd [3]: ~2400 nM

B7: dsDNA4 (40 bp, GC-rich) (dsDNA)
DNA 1: GACATCGGCGCGGGGTTCAGCCCCGGCCGTATTGGGGCTC
DNA 2: GAGCCCCAATACGGCCGGGGCTGAACCCCGCGCCGATGTC
Kd [4]: ~2220 nM

B8: 14-nt 5mC-DNA (BLI) (dsDNA)
DNA 1: CCCGCGCGGGATGT
DNA 2: CCCGCGCGGGATGT
modifications: 5mC at position 3 of both strands
Kd [5]: 810 ± 30 nM
Kd ([6]; 10 bp palindromic duplex, 3' overhang 4 nt on both strands): 2010 ± 110 nM

B9: ssDNA (40 nt) (ssDNA)
DNA: TTTTTTCTTTTTTCTTTTTTCTTTTTTCTTTTTTCTTTTT
Kd [6]: 2770 nM

B10: dsDNA2 (40 bp, AT-rich) (dsDNA)
DNA 1: ATACTTACGAATCTGAACTTAGATCCTAATATACATTCTA
DNA 2: TAGAATGTATATTAGGATCTAAGTTCAGATTCGTAAGTAT
Kd [4]: ~2220 nM

B11: dsDNA9 (10-30 bp) (dsDNA)
DNA 1: AACTTACATAAATGCCAATATAGTATGCGT
DNA 2: ACGCATACTATATTGGCATTTATGTAAGTT
Kd [7]: ~1930 nM

B12: dsDNA8 (10-30 bp) (dsDNA)
DNA 1: ACTTACTGCCAATATAGTAT
DNA 2: ATACTATATTGGCAGTAAGT
Kd [7]: ~1930 nM

B13: dsDNA3 (40 bp, GC-rich) (dsDNA)
DNA 1: GCTGGCCCTGACATGGGTGCCAGCGTAGTGCGCGTAGCGC
DNA 2: GCGCTACGCGCACTACGCTGGCACCCATGTCAGGGCCAGC
Kd [4]: ~2220 nM

B14: bubble DNA (structured_DNA)
DNA 1: GCTTTAACTTACATACCCCCCCCCCTAGTATGCGTATTGC
DNA 2: B2 DNA 2 with A17T, G20T, G21T, C22T, A23T
Kd ([2]; bubble): ~1380 nM

B15: 14-nt DNA (crystal), unmodified (dsDNA)
DNA 1: CCCGCGCGGGATGT
DNA 2: CCCGCGCGGGATGT
binding result [8]: binds
